Source: US20250236657A1 (TOSOH, published 2025)
Numbering of substitutions follows the chain as printed.

Tests used:
[1] = target: AAV vector (AAV5-EGFP), adeno-associated virus serotype 5 (adeno-associated virus serotype 5 (AAV5)); assay: ELISA, AAV5-EGFP coated, culture supernatant, anti-6His, A450
[2] = target: AAV vector (AAV5-EGFP), adeno-associated virus serotype 5 (adeno-associated virus serotype 5 (AAV5)); assay: ELISA, AAV5-EGFP coated, culture supernatant, anti-6His, A450; the reference itself
AAV2 H271F [3] = target: T1, AAV2 H271F (adeno-associated virus serotype 2 (AAV2), UniProt P03135 1-735); assay: affinity HPLC on AVR10s column, pH gradient 4.5 to 2.2; no elution peak, not adsorbed and passed through
T1 construct: Recombinant AAV2 vector particles in filtered cell lysate

AAV2 G383A [4] = target: T2, AAV2 G383A (adeno-associated virus serotype 2 (AAV2), UniProt P03135 1-735); assay: as above
T2 construct: Recombinant AAV2 vector particles in filtered cell lysate

AAV2 D529A [5] = target: T3, AAV2 D529A (adeno-associated virus serotype 2 (AAV2), UniProt P03135 1-735); assay: as above
T3 construct: Recombinant AAV2 vector particles in filtered cell lysate

[6] = target: T4, AAV2 (wild type), serotype 2 AAV with capsid region VP1 of SEQ ID NO: 99 (adeno-associated virus serotype 2 (AAV2), UniProt P03135 1-735); assay: affinity HPLC, AVR10s immobilization gel, linear pH gradient 4.5 to 2.2, AAV2 peak top
T4 construct: Recombinant AAV2 vector particles (EGFP genome) in filtered cell lysate; the capsid is assembled from VP1, VP2 and VP3

AAV2 D528A = target: T5, AAV2 D528A (adeno-associated virus serotype 2 (AAV2), UniProt P03135 1-735); assay: as above
T5 construct: Recombinant AAV2 vector particles in filtered cell lysate

AAV2 H271T = target: T6, AAV2 H271T (adeno-associated virus serotype 2 (AAV2), UniProt P03135 1-735); assay: as above
T6 construct: Recombinant AAV2 vector particles in filtered cell lysate

AAV2 S267T = target: T7, AAV2 S267T (adeno-associated virus serotype 2 (AAV2), UniProt P03135 1-735); assay: as above
T7 construct: Recombinant AAV2 vector particles in filtered cell lysate

AAV2 S384A = target: T8, AAV2 S384A (adeno-associated virus serotype 2 (AAV2), UniProt P03135 1-735); assay: as above
T8 construct: Recombinant AAV2 vector particles in filtered cell lysate

AAV2 S267A = target: T9, AAV2 S267A (adeno-associated virus serotype 2 (AAV2), UniProt P03135 1-735); assay: as above
T9 construct: Recombinant AAV2 vector particles in filtered cell lysate

AAV2 H271A = target: T10, AAV2 H271A (adeno-associated virus serotype 2 (AAV2), UniProt P03135 1-735); assay: as above
T10 construct: Recombinant AAV2 vector particles in filtered cell lysate

AAV2 E499A = target: T11, AAV2 E499A (adeno-associated virus serotype 2 (AAV2), UniProt P03135 1-735); assay: as above
T11 construct: Recombinant AAV2 vector particles in filtered cell lysate

AAV2 T503S = target: T12, AAV2 T503S (adeno-associated virus serotype 2 (AAV2), UniProt P03135 1-735); assay: as above
T12 construct: Recombinant AAV2 vector particles in filtered cell lysate

AAV2 S264A = target: T13, AAV2 S264A (adeno-associated virus serotype 2 (AAV2), UniProt P03135 1-735); assay: as above
T13 construct: Recombinant AAV2 vector particles in filtered cell lysate

AAV2 N382A = target: T14, AAV2 N382A (adeno-associated virus serotype 2 (AAV2), UniProt P03135 1-735); assay: as above
T14 construct: Recombinant AAV2 vector particles in filtered cell lysate

AAV2 R471A = target: T15, AAV2 R471A (adeno-associated virus serotype 2 (AAV2), UniProt P03135 1-735); assay: as above
T15 construct: Recombinant AAV2 vector particles in filtered cell lysate

AAV2 H271Q = target: T16, AAV2 H271Q (adeno-associated virus serotype 2 (AAV2), UniProt P03135 1-735); assay: as above
T16 construct: Recombinant AAV2 vector particles in filtered cell lysate

AAV2 Q385A = target: T17, AAV2 Q385A (adeno-associated virus serotype 2 (AAV2), UniProt P03135 1-735); assay: as above
T17 construct: Recombinant AAV2 vector particles in filtered cell lysate

AAV2 D529E = target: T18, AAV2 D529E (adeno-associated virus serotype 2 (AAV2), UniProt P03135 1-735); assay: as above
T18 construct: Recombinant AAV2 vector particles in filtered cell lysate

AAV2 Q263A = target: T19, AAV2 Q263A (adeno-associated virus serotype 2 (AAV2), UniProt P03135 1-735); assay: as above
T19 construct: Recombinant AAV2 vector particles in filtered cell lysate

AAV2 H271F [7] = target: T1, AAV2 H271F; assay: affinity HPLC on AVR21 column, pH gradient 6.0 to 2.0; no elution peak, not adsorbed and passed through
AAV2 G383A [8] = target: T2, AAV2 G383A; assay: as above
AAV2 D529A [9] = target: T3, AAV2 D529A; assay: as above

B1: AVR10s_A330C (receptor)
chain: MGSAGESDQITLPKNEVQLNCYVLQEPPKGETSTYDWQLITHPRDYSGEMEGEHSQILKLSNLTPGLYEFKAVVEGQNAHSEGYVNVTVEPEPRKNRPPIAIVSPQFQEISLPTTSTVIDGSQSTDDDKIVQYHWEELKGPLREEKISEDTAILKLSKLVPGNYTFRLTVVDSDGATDSTTANLTVNKAVDHHHHHH
Binding activity for AAV5 (vs AVR10s) (ratio (AVR10s = 1)) [1]: 1.94

B2: AVR10s_A330W (receptor)
chain: B1 chain with C21W
Binding activity for AAV5 (vs AVR10s) (ratio (AVR10s = 1)) [1]: 1.46

B3: AVR10s_Y331C (receptor)
chain: B1 chain with C21A, Y22C
Binding activity for AAV5 (vs AVR10s) (ratio (AVR10s = 1)) [1]: 1.3

B4: AVR10s_A330F (receptor)
chain: B1 chain with C21F
Binding activity for AAV5 (vs AVR10s) (ratio (AVR10s = 1)) [1]: 1.68

B5: AVR10s_L333C (receptor)
chain: B1 chain with C21A, L24C
Binding activity for AAV5 (vs AVR10s) (ratio (AVR10s = 1)) [1]: 1.51

B6: AVR10s_A330V (receptor)
chain: B1 chain with C21V
Binding activity for AAV5 (vs AVR10s) (ratio (AVR10s = 1)) [1]: 1.83

B7: AVR10s_A330L (receptor)
chain: B1 chain with C21L
Binding activity for AAV5 (vs AVR10s) (ratio (AVR10s = 1)) [1]: 1.53

B8: AVR10s_A330Y (receptor)
chain: B1 chain with C21Y
Binding activity for AAV5 (vs AVR10s) (ratio (AVR10s = 1)) [1]: 2.19

B9: AVR10s_L348C (receptor)
chain: B1 chain with C21A, L39C
Binding activity for AAV5 (vs AVR10s) (ratio (AVR10s = 1)) [1]: 1.19

B10: AVR10s_I349N (receptor)
chain: B1 chain with C21A, I40N
Binding activity for AAV5 (vs AVR10s) (ratio (AVR10s = 1)) [1]: 1.13

B11: AVR10s_V332W (receptor)
chain: B1 chain with C21A, V23W
Binding activity for AAV5 (vs AVR10s) (ratio (AVR10s = 1)) [1]: 3.87

B12: AVR10s_V332Y (receptor)
chain: B1 chain with C21A, V23Y
Binding activity for AAV5 (vs AVR10s) (ratio (AVR10s = 1)) [1]: 1.5

B13: AAV-binding protein AVR10s (polypeptide of SEQ ID NO: 4, with polyhistidine tag) (receptor)
chain: B1 chain with C21A
Binding activity for AAV5 (vs AVR10s) (ratio (AVR10s = 1)) [2]: 1

B14: AVR10s_A330R (receptor)
chain: B1 chain with C21R
Binding activity for AAV5 (vs AVR10s) (ratio (AVR10s = 1)) [1]: 1.5

B15: AVR10s_Q347S (receptor)
chain: B1 chain with C21A, Q38S
Binding activity for AAV5 (vs AVR10s) (ratio (AVR10s = 1)) [1]: 1.73

B16: AAV-binding protein AVR10s with cysteine tag (SEQ ID NO: 97), immobilised as AVR10s immobilization gel (receptor)
chain: MGSAGESDQITLPKNEVQLNAYVLQEPPKGETSTYDWQLITHPRDYSGEMEGEHSQILKLSNLTPGLYEFKAVVEGQNAHSEGYVNVTVEPEPRKNRPPIAIVSPQFQEISLPTTSTVIDGSQSTDDDKIVQYHWEELKGPLREEKISEDTAILKLSKLVPGNYTFRLTVVDSDGATDSTTANLTVNKAVDHHHHHHCRNDTCG
modifications: immobilised on a TOYOPEARL carrier with iodoacetamide groups; cysteine tag sequence serving as immobilization tag at positions 220-226
notes: purified on Ni Sepharose and coupled to the carrier; also called AVR10s column
binding result (AAV2 H271F [3]): no binding
binding result (AAV2 G383A [4]): no binding
binding result (AAV2 D529A [5]): no binding
AVR10s column elution time [6]: 54.4 min
AVR10s column elution time (AAV2 D528A): 47.5 min
AVR10s column elution time (AAV2 H271T): 42.6 min
AVR10s column elution time (AAV2 S267T): 54.2 min
AVR10s column elution time (AAV2 S384A): 52.1 min
AVR10s column elution time (AAV2 S267A): 52.9 min
AVR10s column elution time (AAV2 H271A): 46.7 min
AVR10s column elution time (AAV2 E499A): 53.1 min
AVR10s column elution time (AAV2 T503S): 48 min
AVR10s column elution time (AAV2 S264A): 53.7 min
AVR10s column elution time (AAV2 N382A): 46.4 min
AVR10s column elution time (AAV2 R471A): 53.4 min
AVR10s column elution time (AAV2 H271Q): 46.4 min
AVR10s column elution time (AAV2 Q385A): 50.9 min
AVR10s column elution time (AAV2 D529E): 47 min
AVR10s column elution time (AAV2 Q263A): 54.4 min

B17: AAV-binding protein AVR21 with cysteine tag (SEQ ID NO: 102), immobilised as AVR21 immobilization gel (receptor)
chain: MGSAGESDQITLPKHEAQLNVYVLLVPPKGEASTYDWQLITHPRDYSGEMEGEHSQILKLSNLTPGLYEYRAVVEGQNAHSEGYVNVTVEPEPRKNRPPIAIVSPQFQEISLPTTSTVIDGSQSTDDDKIVQYHWEELKGPLREEKISEDTAILKLSQLVPGNYTFRLTVVDTDGATDSTTADLTVNKAVDHHHHHHCRNDTCG
modifications: immobilised on a TOYOPEARL carrier with iodoacetamide groups; cysteine tag sequence serving as immobilization tag at positions 220-226
notes: KIAA0319L PKD1 and PKD2 with 21 substitutions; also called AVR21 column
binding result (AAV2 H271F [7]): no binding
binding result (AAV2 G383A [8]): no binding
binding result (AAV2 D529A [9]): no binding
